Measurements as given in article PMC11681868, “Unveiling the structural mechanisms behind high affinity and selectivity in phosphorylated epitope-specific rabbit antibodies” (The Journal of Biological Chemistry, 2024).

Target: T1, Akt peptide (synthetic peptide; letters match human …)
T1 construct: Akt peptide around 473-Ser, not phosphorylated; also called non-phosphorylated antigen; non-phosphorylated peptide; source: synthetic peptide (SCRUM Inc.)
T1 chain: RPHFPQFSYSAS
Test: ITC; iTC200; 5 μM scFv in the cell, 50 μM peptide in the syringe; samples dialyzed against PBS; triplicate
Conditions: both partners purified

B1: rabbit antibody A4 scFv (wild type) (scFv, V domains shown)
VH: QEQLMESGGRLVTPGTPLTLTCTASGSDISTYSISWVRQAPGKGLEWIGHIGSSGTQYYASWAKGRFAISRASTTVDLRITGPTTEDTATYFCARRGVGYNLYYNMWGPGTLVTVSL
VL: AIDMTQTPSPVSAAVGGTVTINCQASQSVYNSKNLAWYQQKPGQPPKLLIYDSSTLASGVSSRFRGSGSGTQFTLTISGVQSDDAATYYCQGEFSCSSGDCAGFGGGTEVVVE
notes: VH of rabbit antibody A4; they are in PDB 8JOW (A4 scFv); GS linker of the scFv; PDB 8JOW may hold them; VL (kappa) of rabbit antibody A4; they are in PDB 8JOW; the deposited construct should already hold Ser at L80 (Chothia); Antibody numbering is Chothia; also called A4 WT; source: E. coli BL21(DE3), purified (Ni-NTA, SEC)
B1 gave a Kd of 1120 nM.
